# Data published in patent US20140170125A1, “USE OF CARDIOTROPHIN-1 FOR THE TREATMENT OF KIDNEY DISEASES” (DIGNA Biotech, S.L., priority 2011, published 2014).
# Entries after “also recorded” stand apart in the source; their conditions may differ.
# B1: CT-1: cytokine belonging to the interleukin 6 family; recombinant human CT-1 or rat cardiotrophin-1 administered i.v. (protein, UniProt Q16619 1-201, looked up)
# Cardiotrophin-1: MSRREGSLEDPQTDSSVSLLPHLEAKIRQTHSLAHLLTKYAEQLLQEYVQLQGDPFGLPSFSPPRLPVAGLSAPAPSHAGLPVHERLRLDAAALAALPPLLDAVCRRQAELNPRAPRLLRRLEDAARQARALGAAVEALLAALGAANRGPRAEPPAATASAASATGVFPAKVLGLRVCGLYREWLSRTEGDLGQLLPGGSA
# Columns and labels:
# [1] = tested on: acute kidney injury produced by gentamicin; assay: Acute kidney injury produced by gentamicin; details: for urinary flow: administered separately, vs control group (C); for reactive bands to the anti KIM-1 antibody in the urine / renal levels of KIM-1 (Western blot): vs controls; for survival: until the end of the experiment
# [2] = tested on: experimental model of iodinated contrast nephropathy; assay: Contrast-induced nephropathy: Gastrografin in rats sensitized with subtoxic gentamicin; details: for KIM-1 in the urine (Western blot): in comparison with the controls; for general condition (appearance, mobility): throughout the experiment; for survival: until the end of the experiment (four days after contrast); for PAI-1 in the urine (Western blot): vs control group
# Protocol: The rats were placed in individual metabolic cages where they had free access to food and drink. After two days of acclimatization, the 24-hour urine was collected in graduated cylinders. The urine collected was centrifuged during 8 minutes at 2,500 rpm, to clean it from residues not thereof, the clean urine was collected and it was stored at −80° C. for its later analysis.
# The blood samples were obtained in capillaries with heparin by a small cut at the end of the tail. Five capillaries were extracted per rat (200 μL), and the capillaries were centrifuged in a microcentrifuge at 11,000 rpm during three minutes. Once centrifuged, the capillaries were broken with the aid of a file, by the cells-plasma limit. The plasma was extracted and stored in eppendorf tubes at −80° C. for its later analysis.
# To measure kidney function, the plasma concentrations of creatinine and creatinine clearance, which is a measurement of the glomerular filtration rate, were determined. The creatinine clearance (CrCl) was calculated from the formula CrCl=UF×CrU/CrP, where UF is the urinary flow (ml/min), CrU the creatinine concentration in urine (mg/ml) and CrP the creatinine concentration in plasma (mg/ml). The creatinine concentration in urine and in plasma were measured by a semiautomatic analyser (Reflotron, Roche).
# The concentration of urea in plasma was measured by specific reactive strips of a commercial kit, using a semiautomatic analyser (Reflotron, Roche).
# The concentration of proteins in urine (proteinuria) was measured by Bradford's colorimetric method (Anal Biochem. 1976; 72:248-54). The urinary excretion of proteins (UEprot) in 24 hours was calculated by the formula: UEprot=Cprot×FU24 h, where Cprot is the concentration of proteins in urine (mg/mL) and FU24 h the urinary flow of 24 hours (mL/day).
# For its determination a commercial kit from Roche was used, following the manufacturer's specifications, and the results were analysed with the KC-Junior software.
# In the Western Blot technique, 100 μg of protein of the total of the renal tissue homogenate or a volume of urine of each animal which corresponds to the excretion fraction were loaded in a polyacrylamide gel. After separation by electrophoresis, these proteins were transferred to a PVDF membrane (Inmobilon-P #IPVH00010, Madrid, Spain), and they were hybridized with antibodies against KIM-1 (R&D Systems) and NGAL (MBL).
# An experimental model of iodinated contrast nephropathy was used, consisting of the intravenous administration of the iodinated contrast Gastrografin (Bayer C. N. 909622 EXO) to rats predisposed to suffering acute kidney failure.
# The experiment was performed on 32 male Wistar rats of around 220 grams in weight. The environmental conditions of the animals were kept constant: temperature of around 20° C., humidity of approximately 60% and daily light period (photoperiod) of 12 hours.
# Six experimental groups were considered in the design study:
# Control group (C): rats administered saline solution (n=5).
# Cardiotrophin group (CT-1): rats administered cardiotrophin i.v. (100 μg/Kg/day) the day before the administration of the contrast and in the four subsequent days (n=5).
# Gastrografin group (Gg): rats administered a single dose of iodinated agent i.v. (10 mL/Kg; […]) (n=5).
# The animals were housed in metabolic cages in order to collect the urine free of faeces. Likewise, a blood sample was obtained every day (0.150 ml) from the tail in heparized capillaries.
# At the end of the experiments (four days after administration of the iodinated contrast) the rats were anaesthetized and, later, they were perfused with heparinized saline solution. The kidneys were obtained from these animals and part of the samples was introduced in formol to perform histological studies whilst another part was ultrafrozen for the tissue studies.
# The studies performed were the following:
# Plasma creatinine, Plasma urea, proteinuria, microalbuminuria
# Creatinine clearance in metabolic cages
# [3] = tested on: cisplatin-induced kidney injury; assay: Acute kidney injury produced by cisplatin; type: in vivo, Wistar rats
# Protocol: The urinary flow (mL/day) was evaluated measuring the graduated receptacles containing the 24-hour urine in the metabolic cages as indicated in the obtainment of urine.
# The experiment was performed in 24 male Wistar rats of around 220 grams in weight.
# The animals were divided in 4 experimental groups, comprising 6 rats per group. […] The experimental design was developed as described below:
# Group I (Control, C, n=6 animals) animals treated with vehicle via i.v. during 7 days.
# Group II (Cardiotrophin-1, CT-1, n=6 animals) animals administered a daily dose of cardiotrophin-1 of 100 μg/kg body weight via i.v. during 7 days.
# [4] = tested on: rats subjected to 60 minutes of left renal ischemia; assay: Acute kidney injury produced by renal ischemia/reperfusion (60 minutes of left renal ischemia); type: in vivo
# [5] = agents without CT-1 protection or alone, vs control
# [6] = group Gg+G+CT-1, CT-1 100 μg/Kg/day i.v.
# [7] = 4 hours after reperfusion, elevation induced by IR
molecule,measurement,setting,value
gentamicin [reference compound],urinary flow,[1],"Neither G nor CT-1, administered separately, modified the urinary flow"
same,"general condition (appearance, mobility)",[1]; agent alone,"more deteriorated appearance, reduced mobility and slight colouring of the hair"
same,proteinuria,[1]; agent alone,high proteinuria
same,reactive bands to the anti KIM-1 antibody in the urine,[1]; agent alone,clear increase
same,renal levels of KIM-1 (Western blot),[1]; agent alone,clear increase
same,liver weight (with respect to the body weight),[1]; at the time of sacrifice,tendency for relative weight reduction
same,renal and urinary NGAL (Western blot),[1]; end of treatments,induce an increase
same,renal cortex histology (hematoxylin-eosin),"[1]; gentamicin alone, end of treatments",massive tubular necrosis
same,survival,[1],one animal from each group died
same,body weight,[1]; vs control and CT-1 groups,slight decrease
same,proteinuria,[2]; [5],did not alter
same,KIM-1 in the urine (Western blot),[2],produced no effect
same,"general condition (appearance, mobility)",[2],healthy appearance and normal mobility
same,survival,[2],all animals survived until the end of the experiment
same,PAI-1 in the urine (Western blot),[2],not different from the control group animals
B1,body weight,"[3]; agent alone, vs control group",without apparent differences; also recorded: does not show changes
same,plasma creatinine,"[3]; agent alone, vs control group",does not reflect changes
same,cisplatin-induced reduction in body weight under joint treatment,"[3]; cardiotrophin-1 100 μg/kg i.v. 7 days + cisplatin 6 mg/kg i.p., vs cisplatin",significantly less
same,cisplatin-induced increase in plasma creatinine under joint treatment,"[3]; cardiotrophin-1 100 μg/kg i.v. 7 days + cisplatin 6 mg/kg, vs cisplatin",significantly less
same,physical condition during coadministration with cisplatin,[3]; cardiotrophin-1 + cisplatin,spectacular improvement
same,cisplatin-induced increase in final kidney weight under joint treatment,"[3]; cardiotrophin-1 + cisplatin, vs cisplatin",substantially less
same,effect on cisplatin-induced kidney injury (conclusion),"[3]; rat cardiotrophin-1 100 μg/kg/day i.v. 7 days, cisplatin 6 mg/kg",protective effect
same,survival,"[3]; throughout the experimental period, vs control group",does not modify the survival
same,urinary flow under joint administration with cisplatin,[3]; without significant differences vs control and cardiotrophin-1 groups,constant evolution
same,"gentamicin-induced symptoms (appearance, mobility, hair) in group G+CT-1",[1]; CT-1 100 μg/kg/day i.v. 7 days + gentamicin 150 mg/kg/day i.p. 6 days,significantly reduced
same,effect on the decrease in creatinine clearance produced by G,[1]; CT-1 together with G,partially reversed
same,effect on the increase in plasma creatinine produced by G,[1]; CT-1 together with G,partially reversed
same,effect on the increase in plasma urea concentration produced by G,[1]; CT-1 together with G,partially reversed
same,effect on the proteinuria produced by G,[1]; CT-1 together with G,partially reversed
same,urinary flow,[1],"Neither G nor CT-1, administered separately, modified the urinary flow"
same,creatinine clearance,[1]; agent alone,did not alter
same,"general condition (appearance, mobility)",[1]; agent alone,healthy appearance and normal mobility
same,plasma creatinine,[1]; agent alone,did not alter
same,proteinuria,[1]; agent alone,did not alter
same,urea plasma concentration,[1]; agent alone,did not alter
same,reactive bands to the anti KIM-1 antibody in the urine,[1]; agent alone,does not produce any effect
same,renal levels of KIM-1 (Western blot),[1]; agent alone,does not produce any effect
same,liver weight (with respect to the body weight),[1]; at the time of sacrifice,certain hepatomegaly
same,spleen weight (with respect to the body weight),[1]; at the time of sacrifice,marked splenomegaly
same,systolic blood pressure (SBP),[1]; basal vs end of treatments (d 6),not observed
same,extension of gentamicin tubular damage under cotreatment (histology),[1]; cotreatment with CT-1,moderately and partially prevents the extension of tubular damage
same,renal and urinary NGAL (Western blot),[1]; end of treatments,induce an increase
same,effect on the increase in NAG excretion produced by G,[1]; especially the submaximal of the first days,reduces this increase
same,effect on the increase in KIM-1 expression in the kidney that G produces,[1]; group G+CT-1,does not appreciably decrease
same,effect on the weight loss produced by G,[1]; group G+CT-1,partially mitigated
same,upper band (approx. 90 kDa) of KIM-1 in the urine under G with CT-1,[1]; group G+CT-1,partially decreases
same,effect on acute kidney injury produced by gentamicin (conclusion),"[1]; recombinant human CT-1 i.v. 100 μg/kg/day, 7 days",protective effect
same,survival,[1],all animals survived until the end of the experiment
same,creatinine clearance,[2]; [5],did not alter
same,plasma concentration of creatinine,[2]; [5],did not alter
same,proteinuria,[2]; [5],did not alter
same,urea plasma concentration,[2]; [5],did not alter
same,effect on the RPF decrease produced by Gg+G,[2]; co-treatment with CT-1,reversal
same,effect on the RVR increase produced by gentamicin and gastrografin,[2]; coadministration of CT-1,counteracted the increase
same,PAI-1 in the urine under Gg+G with CT-1,[2]; group Gg+G+CT-1,does not appear
same,effect on the GFR decrease produced by Gg+G,[2]; group Gg+G+CT-1,reversed
same,effect on the NAG increase produced by Gg+G,[2]; group Gg+G+CT-1,reduced this increase
same,effect on the decrease in creatinine clearance produced by Gg+G,[2]; [6],partially reversed
same,effect on the increase in plasma concentration of creatinine produced by Gg+G,[2]; [6],partially reversed
same,effect on the increase in plasma urea produced by Gg+G,[2]; [6],partially reversed
same,effect on the proteinuria produced by Gg+G,[2]; [6],partially reversed
same,KIM-1 in the urine (Western blot),[2],produced no effect
same,deterioration of renal excretory function and intensity of tubular damage (conclusion),"[2]; recombinant human CT-1 i.v. 100 μg/kg/day, contrast nephropathy in animals sensitized with gentamicin",reduces
same,"general condition (appearance, mobility)",[2],healthy appearance and normal mobility
same,survival,[2],all animals survived until the end of the experiment
same,effect on the increase in KIM-1 expression produced by Gg+G,"[2]; urine, Western blot, group Gg+G+CT-1",considerably decreases the increase
same,PAI-1 in the urine (Western blot),[2],not different from the control group animals
same,decrease of plasma levels of IL-6 after ischemia and reperfusion,[4]; 4 hours after reperfusion,not observed
same,decrease of plasma levels of IL-10 after ischemia and reperfusion,[4]; 4 hours after reperfusion,not observed
same,plasma levels of IFN-γ,[4]; [7],blocked the elevation
same,plasma levels of IL-1β,[4]; [7],blocked the elevation
same,plasma levels of TNF-α,[4]; [7],blocked the elevation
same,obstructed tubules and vacuolated cells (histology),"[4]; 24 hours after reperfusion, vs control kidneys",less abundant
same,creatinine clearance,"[4]; 48 hours after I/R, vs IR C",significantly higher
same,plasma creatinine,"[4]; 48 hours after I/R, vs IR C, no significant differences vs simulated group",markedly lower
same,denuded tubules and inflammatory infiltration (histology),"[4]; 48 hours after reperfusion, vs control kidneys",less abundant
same,mortality,"[4]; 14 days after the I/R, CT-1 400 μg/kg, untreated ischemic group 40%",20%
same,acute kidney injury induced by ischemia/reperfusion (conclusion),"[4]; also decrease in kidney function, oxidative stress and inflammation",prevents acute kidney injury
same,renal levels of superoxide anion (SOA),"[4]; four hours after reperfusion, vs ischemic control group, significantly greater than simulated group",significantly less
